{"source": "paper PMC3824080", "biological_target": "T1, Human cytosolic aspartyl-tRNA synthetase (human), P14868", "T1 chain": "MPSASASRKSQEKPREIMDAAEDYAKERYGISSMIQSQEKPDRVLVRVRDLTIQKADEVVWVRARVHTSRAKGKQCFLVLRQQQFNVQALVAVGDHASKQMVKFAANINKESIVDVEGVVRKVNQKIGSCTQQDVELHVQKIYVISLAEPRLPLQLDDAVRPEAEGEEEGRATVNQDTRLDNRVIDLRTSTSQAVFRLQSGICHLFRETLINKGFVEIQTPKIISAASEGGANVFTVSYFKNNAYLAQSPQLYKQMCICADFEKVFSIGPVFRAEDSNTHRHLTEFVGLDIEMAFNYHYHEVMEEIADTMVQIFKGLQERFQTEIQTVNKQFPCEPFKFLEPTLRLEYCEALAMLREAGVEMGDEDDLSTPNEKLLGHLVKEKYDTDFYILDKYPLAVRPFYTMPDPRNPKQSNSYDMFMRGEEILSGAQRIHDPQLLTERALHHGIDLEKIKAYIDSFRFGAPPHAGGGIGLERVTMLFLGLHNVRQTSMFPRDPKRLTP", "assay": "crystal structure", "conditions": "remark: other sources report otherwise", "data": [{"binder": "Human cytosolic aspartyl-tRNA synthetase, P14868 1-501 (enzyme) MPSASASRKSQEKPREIMDAAEDYAKERYGISSMIQSQEKPDRVLVRVRDLTIQKADEVVWVRARVHTSRAKGKQCFLVLRQQQFNVQALVAVGDHASKQMVKFAANINKESIVDVEGVVRKVNQKIGSCTQQDVELHVQKIYVISLAEPRLPLQLDDAVRPEAEGEEEGRATVNQDTRLDNRVIDLRTSTSQAVFRLQSGICHLFRETLINKGFVEIQTPKIISAASEGGANVFTVSYFKNNAYLAQSPQLYKQMCICADFEKVFSIGPVFRAEDSNTHRHLTEFVGLDIEMAFNYHYHEVMEEIADTMVQIFKGLQERFQTEIQTVNKQFPCEPFKFLEPTLRLEYCEALAMLREAGVEMGDEDDLSTPNEKLLGHLVKEKYDTDFYILDKYPLAVRPFYTMPDPRNPKQSNSYDMFMRGEEILSGAQRIHDPQLLTERALHHGIDLEKIKAYIDSFRFGAPPHAGGGIGLERVTMLFLGLHNVRQTSMFPRDPKRLTP", "values": [{"measurement": "stoichiometry N", "value": 2}]}]}
